Results published in paper PMC5681985, “Conserved Molecular Mechanism of TyrA Dehydrogenase Substrate Specificity Underlying Alternative Tyrosine Biosynthetic Pathways in Plants and Microbes” (Frontiers in Molecular Biosciences, 2017).
Substitutions are numbered along the chain they refer to. Numbers in names are those of the source.

Key:
[1] = target: T1, OiTyrA (OiTyrAa) (Brucella intermedia, UniProt C4WNJ2); assay type: biochemical
T1 construct: gene OINT_2001142

[2] = test system: T2, O=C(O)C(=O)CC1(C(=O)O)C=CC(O)C=C1; test: A340 reduced cofactor formation, Michaelis-Menten fit; assay type: biochemical, Methanothrix harundinacea; settings: 25 mM HEPES pH 7.6, 50 mM KCl, 10% ethylene glycol
T2 construct: full-length, codon-optimized, N-terminal 6xHis tag (pET28a), E. coli Rosetta2 (DE3), HisTrap purified; monofunctional enzyme
Excerpt: (§1) A340 reduced cofactor formation, Michaelis-Menten fit on MhTyrA (MhTyrAp)

[3] = test system: T3, N[C@@H](CC1(C(=O)O)C=CC(O)C=C1)C(=O)O; test: as above; assay type: biochemical, Methanothrix harundinacea; settings: 0.8 mM preferred cofactor (NADP+), 25 mM HEPES pH 7.6, 50 mM KCl, 10% ethylene glycol
T3 construct: full-length, codon-optimized, N-terminal 6xHis tag (pET28a), E. coli Rosetta2 (DE3), HisTrap purified; monofunctional enzyme
Excerpt: as §1

[4] = substrate: N[C@@H](CC1(C(=O)O)C=CC(O)C=C1)C(=O)O; test: as above; assay type: biochemical, Sediminispirochaeta smaragdinae; settings: 25 mM HEPES pH 7.6, 50 mM KCl, 10% ethylene glycol
Excerpt: (§2) A340 reduced cofactor formation, Michaelis-Menten fit on SsTyrA (SsTyrAa)

[5] = substrate: O=C(O)C(=O)CC1(C(=O)O)C=CC(O)C=C1; test: as above; assay type: biochemical, Sediminispirochaeta smaragdinae; settings: 0.8 mM preferred cofactor, 25 mM HEPES pH 7.6, 50 mM KCl, 10% ethylene glycol
Excerpt: as §2

[6] = 0.8 mM preferred cofactor (NADP+)
[7] = 0.8 mM preferred cofactor (NAD+ slightly preferred)

T1 sequence (C4WNJ2 1-269 limits assumed): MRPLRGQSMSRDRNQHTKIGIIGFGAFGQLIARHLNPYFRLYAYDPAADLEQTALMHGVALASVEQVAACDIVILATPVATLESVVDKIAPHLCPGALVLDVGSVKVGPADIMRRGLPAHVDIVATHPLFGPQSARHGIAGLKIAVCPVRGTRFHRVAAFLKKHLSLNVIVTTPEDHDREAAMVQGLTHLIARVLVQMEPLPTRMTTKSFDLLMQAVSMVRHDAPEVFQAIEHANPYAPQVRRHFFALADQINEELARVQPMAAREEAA

NC(=O)c1ccc[n+]([C@@H]2O[C@H](COP(=O)(O)OP(=O)(O)OC[C@H]3O[C@@H](n4cnc5c(N)ncnc54)[C@H](O)[C@@H]3O)[C@@H](O)[C@H]2O)c1 [NAD^+]
HPLC product assay, 45 min [1]: strongly preferred NAD^+ over NADP^+ cofactor

N[C@@H](CC1(C(=O)O)C=CC(O)C=C1)C(=O)O (some centres unmarked) [arogenate]
HPLC product assay, 45 min [1]: E. coli cell lysate expressing OiTyrA had ADH but not PDH activity

MhTyrA (MhTyrAp) (Methanothrix harundinacea)
Km ([2]; 0.8 mM NADP+): 378 ± 20 µM
kcat ([2]; 0.8 mM NADP+): 2.44 ± 0.38 s⁻¹
kcat/Km ([2]; 0.8 mM NADP+): 6440 ± 540 M⁻¹ s⁻¹

MhTyrA (MhTyrAp) (Methanothrix harundinacea; Q227E)
Km [3]: 3290 ± 220 µM
kcat [3]: 0.704 ± 0.03 s⁻¹
kcat/Km [3]: 213 ± 50 M⁻¹ s⁻¹
Km [2, 6]: 2669 ± 320 µM
kcat [2, 6]: 0.285 ± 0.02 s⁻¹
kcat/Km [2, 6]: 107 ± 40 M⁻¹ s⁻¹

B1: SsTyrA (SsTyrAa) (Sediminispirochaeta smaragdinae DSM 11293) (protein)
chain: MVEHTVGIYGLGRFGSFWAKSLAASGLKVIGYNRSKRALPEGVVSGSETEVLSCNTLFYCVAISSFEEVLSRTAAKIGKHTLVFDTCSVKVEPVRTMERLLPQGCTFAGSHPMFGPDSASEGMDGLPMVLCPGRDDEGKVDFWRHHFSKMGLRVIEITADRHDKEAAYTQGITHVVGRILGELDLHESEIATSGYKRLLQVREQTCNDPLQLFIDLQRYNPYTHGMRMELTSALEQIMTLFAQADLPPDRP
notes: full-length, codon-optimized, N-terminal 6xHis tag (pET28a), E. coli Rosetta2 (DE3), HisTrap purified
Km [4, 7]: 901 ± 150 µM
kcat [4, 7]: 3.44 ± 0.31 s⁻¹
kcat/Km [4, 7]: 4030 ± 1010 M⁻¹ s⁻¹

B2: SsTyrA (SsTyrAa) (Sediminispirochaeta smaragdinae DSM 11293; D208N) (protein)
chain: B1 chain with D208N
notes: as for B1
Km ([4]; 0.8 mM preferred cofactor): 847 ± 160 µM
kcat ([4]; 0.8 mM preferred cofactor): 0.45 ± 0.01 s⁻¹
kcat/Km ([4]; 0.8 mM preferred cofactor): 568 ± 140 M⁻¹ s⁻¹
Km [5]: 1742 ± 630 µM
kcat [5]: 0.863 ± 0.12 s⁻¹
kcat/Km [5]: 587 ± 400 M⁻¹ s⁻¹
